# According to paper PMC4855144, “Novel Coronin7 interactions with Cdc42 and N-WASP regulate actin organization and Golgi morphology” (Scientific Reports, 2016):
# How the values were obtained:
# Assay in all cases: pull-down; Glutathione-Sepharose beads coated with GST alone or GST-GTPase fusions pre-loaded with GDP (DN) or GTPγS (CA), incubated with lysates of HEK293T cells expressing GFP-CRN7 WT or CRIB mutants; blot with GFP mAb K3-184-2 or anti-N-WASP; ImageJ quantification, input set at 100%
# Details in all cases: one partner purified
# [1] = target: GST-Rac1 dominant negative (DN/T17N), preloaded with GDP (UniProt P63000 1-192, T17N)
# [2] = target: T1, GST-Cdc42 dominant negative (DN/T17N), preloaded with GDP (UniProt P60953 1-191, T17N)
# T1 construct: Preloaded with GDP; also called Cdc42DN; Cdc42 DN; source: E. coli BL21, purified (Glutathione Sepharose), held on glutathione-Sepharose beads
# T1 sequence (P60953 whole entry T17N): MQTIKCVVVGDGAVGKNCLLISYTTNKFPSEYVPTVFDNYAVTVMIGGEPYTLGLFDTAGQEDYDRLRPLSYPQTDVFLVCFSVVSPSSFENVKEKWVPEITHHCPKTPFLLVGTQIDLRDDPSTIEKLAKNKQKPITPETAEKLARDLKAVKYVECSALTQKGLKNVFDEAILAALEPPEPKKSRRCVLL
# [3] = target: GST-Rac1 constitutively active (CA/Q61L), preloaded with GTPγS (UniProt P63000 1-192, Q61L)
binder,measurement,setting,value
"GFP-CRN7 WT (human Coronin7, full length, GFP on its N-terminus) (natural protein, UniProt P57737 1-925, looked up, Coronin7 (CRN7), human, wild type, full length; CRIB motifs at 116-130 (NT-CRIB) and 582-599 (CT-CRIB); also called full-length CRN7; source: HEK293T, transfected (PEI), in lysate; not shown: GFP, N-terminal, kept) MNRFRVSKFRHTEARPPRRESWISDIRAGTAPSCRNHIKSSCSLIAFNSDRPGVLGIVPLQGQGEDKRRVAHLGCHSDLVTDLDFSPFDDFLLATGSADRTVKLWRLPGPGQALPSAPGVVLGPEDLPVEVLQFHPTSDGILVSAAGTTVKVWDAAKQQPLTELAAHGDLVQSAVWSRDGALVGTACKDKQLRIFDPRTKPRASQSTQAHENSRDSRLAWMGTWEHLVSTGFNQMREREVKLWDTRFFSSALASLTLDTSLGCLVPLLDPDSGLLVLAGKGERQLYCYEVVPQQPALSPVTQCVLESVLRGAALVPRQALAVMSCEVLRVLQLSDTAIVPIGYHVPRKAVEFHEDLFPDTAGCVPATDPHSWWAGDNQQVQKVSLNPACRPHPSFTSCLVPPAEPLPDTAQPAVMETPVGDADASEGFSSPPSSLTSPSTPSSLGPSLSSTSGIGTSPSLRSLQSLLGPSSKFRHAQGTVLHRDSHITNLKGLNLTTPGESDGFCANKLRVAVPLLSSGGQVAVLELRKPGRLPDTALPTLQNGAAVTDLAWDPFDPHRLAVAGEDARIRLWRVPAEGLEEVLTTPETVLTGHTEKICSLRFHPLAANVLASSSYDLTVRIWDLQAGADRLKLQGHQDQIFSLAWSPDGQQLATVCKDGRVRVYRPRSGPEPLQEGPGPKGGRGARIVWVCDGRCLLVSGFDSQSERQLLLYEAEALAGGPLAVLGLDVAPSTLLPSYDPDTGLVLLTGKGDTRVFLYELLPESPFFLECNSFTSPDPHKGLVLLPKTECDVREVELMRCLRLRQSSLEPVAFRLPRVRKEFFQDDVFPDTAVIWEPVLSAEAWLQGANGQPWLLSLQPPDMSPVSQAPREAPARRAPSSAQYLEEKSDQQKKEELLNAMVAKLGNREDPLPQDSFEGVDEDEWD",percent of input bound,[1],~17 % of input
same,percent of input bound,[2],65 % of input
same,percent of input bound,[3],7 % of input
